From paper PMC13270999, “Chronology of tRNA structural dynamics prior to and during interaction with a pseudouridine synthase” come the findings set out here.

Usually stoichiometry N stands for the number of molecules, sites or subunits per partner or assembly.

Data set [1] concerns the target GST-tagged full-length S. cerevisiae Pus4 (S. cerevisiae) (UniProt P48567). Nature of the data set: sucrose gradient ultracentrifugation; 10 uM purified GST-Pus4 with and without 10 uM total yeast tRNA, 30 min at room temperature; 10-30% sucrose step gradient in Buffer B (50 mM Tris-HCl pH 7.5, 100 mM KCl), SW 55 Ti, 4 h at 55,000 rpm; fractions read by SDS-PAGE; standards beta-amylase and carbonic anhydrase; apparent molecular ….

For data set [2], the target named is T1, GST-Pus4 (Saccharomyces cerevisiae, UniProt P48567 1-403). Nature of the data set: smFRET / PIFE; 200 nM Pus4; BLI: 50 mM Tris-HCl pH 7.5, 100 mM KCl, 0.02% Tween-20, 30 °C; EMSA: 50 mM Tris-HCl pH 7.5, 100 mM KCl, 30 min room temperature, 8% native PAGE in TBE at 4 °C. To be noted: protein: recombinant; tags: N-terminal GST, Factor Xa site (pGEX-5X-3); tag not removed; label: 5' biotin; Cy3 at U4 C5; Cy5 at U41 C5; tRNA cloverleaf.
T1 sequence (P48567 whole entry): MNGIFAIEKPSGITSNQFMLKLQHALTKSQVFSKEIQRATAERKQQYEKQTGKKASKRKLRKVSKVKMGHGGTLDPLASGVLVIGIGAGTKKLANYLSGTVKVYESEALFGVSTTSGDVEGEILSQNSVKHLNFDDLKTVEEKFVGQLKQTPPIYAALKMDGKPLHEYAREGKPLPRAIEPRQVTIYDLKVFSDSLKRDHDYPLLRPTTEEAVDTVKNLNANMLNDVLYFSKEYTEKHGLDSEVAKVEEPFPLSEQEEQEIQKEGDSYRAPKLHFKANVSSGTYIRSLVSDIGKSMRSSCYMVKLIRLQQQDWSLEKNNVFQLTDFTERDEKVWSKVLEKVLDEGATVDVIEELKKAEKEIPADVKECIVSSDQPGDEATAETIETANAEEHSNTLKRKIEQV

Data set [3] concerns the target T1, GST-Pus4. The experiment in a line: EMSA; 30 nM RNA; all bound at >=200 nM Pus4, 30 min; labelled form assumed; BLI: 50 mM Tris-HCl pH 7.5, 100 mM KCl, 0.02% Tween-20, 30 °C; EMSA: 50 mM Tris-HCl pH 7.5, 100 mM KCl, 30 min room temperature, 8% native PAGE in TBE at 4 °C. To be noted: protein: recombinant; tags: N-terminal GST, Factor Xa site (pGEX-5X-3); tag not removed; label: 5' biotin; Cy3 at U4 C5; Cy5 at U41 C5; tRNA cloverleaf. For orientation: A gel shift assay detects complexes by their altered migration in electrophoresis.

Consider “GST-tagged full-length S. cerevisiae Pus4 (from UniProt P48567 1-403) (enzyme)”, for which the stoichiometry N in data set [1] is 2.

B1: Ψ55 tRNA eMet(CAU), Cy3/Cy5 (structured_RNA)
RNA: GCUUCAGUAGCUCAGUAGGAAGAGCGUCAGUCUCAUAAUCUGAAGGUCGAGAGUUCGAACCUCCCCUGGAGCACCA
modifications: pseudouridine at position 55 (second U of GAGAGUUCGAA)
With B1, in the data set with GST-Pus4 [2], the binding result is reported as “binds”.

B2: U55 tRNA eMet(CAU), Cy3/Cy5 (structured_RNA)
RNA: GCUUCAGUAGCUCAGUAGGAAGAGCGUCAGUCUCAUAAUCUGAAGGUCGAGAGUUCGAACCUCCCCUGGAGCACCA
Take B2: in the data set with GST-Pus4 [3], the binding result is given as “binds”.
